The target of assay [1] is T1, purified, catalytically inactive CNA/B containing CNA_(Trunc+H151Q) (UniProt Q08209 1-391; P63098 1-170, H151Q). The experiment in a line: NMR titration.
In assay [2] the target is T1, purified, catalytically inactive CNA/B …. The assay is described as follows: fluorescence polarisation. For orientation: Fluorescence polarisation rises when a labelled molecule tumbles more slowly, as on binding a larger partner.
Target sequence in this assay (Q08209 1-391 H151Q, chain 1 of 2): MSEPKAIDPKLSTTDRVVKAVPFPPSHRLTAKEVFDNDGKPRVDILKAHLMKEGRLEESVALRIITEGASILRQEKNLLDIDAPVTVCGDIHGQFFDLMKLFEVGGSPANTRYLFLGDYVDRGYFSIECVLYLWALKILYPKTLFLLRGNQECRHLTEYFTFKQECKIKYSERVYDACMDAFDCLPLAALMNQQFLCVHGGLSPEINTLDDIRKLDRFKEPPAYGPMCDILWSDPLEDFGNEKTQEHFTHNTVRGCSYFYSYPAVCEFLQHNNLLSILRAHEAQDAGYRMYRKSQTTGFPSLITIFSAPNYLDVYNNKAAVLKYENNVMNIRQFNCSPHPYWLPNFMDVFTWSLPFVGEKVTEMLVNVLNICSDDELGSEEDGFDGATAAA
Target sequence in this assay (P63098 whole entry, chain 2 of 2): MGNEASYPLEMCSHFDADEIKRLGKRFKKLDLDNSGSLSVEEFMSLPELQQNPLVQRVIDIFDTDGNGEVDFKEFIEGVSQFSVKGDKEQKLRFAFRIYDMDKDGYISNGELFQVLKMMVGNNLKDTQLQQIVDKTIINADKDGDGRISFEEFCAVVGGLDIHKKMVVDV

B1: full-length CLMB (76 residues) expressed in E. coli (natural protein)
chain: MGLKMSCLKGFQMCVSSSSSSHDEAPVLNDKHLDVPDIIITPPTPTGMMLPRDLGSTVWLDETGSCPDDGEIDPEA
modifications: uniformly ^15N-labeled in the NMR titrations; not phosphorylated
As to B1, the binding result in assay [1] is recorded as “binds”. In the case of SHDEAPVLNDKHADAPDIIITPPTPTGMML (phosphothreonine at 44) [pCLMB_(LxVMut) peptide (residues 21-50, pThr44), unlabeled], in assay [2], the binding result is “binds”. With SHDEAPVLNDKHLDVPDIIITPPTPTGMML [CLMBWT peptide (residues 21-50), not phosphorylated, unlabeled], the binding result in assay [2] is recorded as “binds”.
